In PMC10415120:

Biological target: MDC1 (endogenous, HCT116) [human (endogenous in HCT116)]
Assay: proximity ligation assay (PLA) in cells
Settings: ESCO2 KD HCT116 cells, bleomycin treated; 30 cells counted per group; mean ± SEM; parent: 14; read off a plot

response (PLA dots per cell): 0.5
Substance: Flag-ESCO2 WT (in ESCO2 KD HCT116 cells) mutant S196A; T233A [human] / MDC1 (endogenous, HCT116) [human (endogenous in HCT116)] chain 1 S196A, chain 1 T233A
